Target: Atg17 (Lachancea thermotolerans), crystallised construct (Lachancea thermotolerans)
Assay: SEC-MALS

Work on “Atg17 (Lachancea thermotolerans), crystallised construct (natural protein)” yielded a stoichiometry N of 2.

Source: publication PMC3806636
